Test [1] addresses human recombinant soluble RAGE/flag fusion protein (human). Briefly: excess lactoferrin against 125I-AGE-BSA binding to immobilized RAGE, Exp. 2; the filing leaves open whether lactoferrin acts through RAGE or AGE.
Test [2] has the same target. Briefly: excess native BSA against 125I-AGE-BSA binding to immobilized RAGE, Exp. 2.
For test [3] the target is unchanged. Kind of test: excess native BSA against 125I-AGE-BSA binding to immobilized RAGE, Exp. 3.
A further test concerns the target AGE-BSA (bovine) (UniProt P02769). Kind of test: excess free RAGE/DCC chimera against 125I-AGE-BSA binding to immobilized RAGE, Exp. 1.

Some results are limits rather than exact numbers.

For the substance lactoferrin (ligand), in test [1], the % Binding was found to be 50%.
native BSA (from UniProt P02769): the % Binding in test [2] and in test [3] was over 100% throughout.
On to “recombinant soluble RAGE/DCC chimeric protein (receptor)”, for which the % Binding with AGE-BSA (bovine) worked out at 40%.

The values above are taken from US5864018.
